Experiments:
human FcγRIIb = biological target: T1, human FcγRIIb (human, UniProt P31994 43-310); assay: flow cytometry on CHOS-hCD32b cells (overexpressing human FcγRIIb), anti-human IgG-Fc PE
T1 construct: whole, on cells; also called hCD32b; CD32b
T1 sequence (looked up): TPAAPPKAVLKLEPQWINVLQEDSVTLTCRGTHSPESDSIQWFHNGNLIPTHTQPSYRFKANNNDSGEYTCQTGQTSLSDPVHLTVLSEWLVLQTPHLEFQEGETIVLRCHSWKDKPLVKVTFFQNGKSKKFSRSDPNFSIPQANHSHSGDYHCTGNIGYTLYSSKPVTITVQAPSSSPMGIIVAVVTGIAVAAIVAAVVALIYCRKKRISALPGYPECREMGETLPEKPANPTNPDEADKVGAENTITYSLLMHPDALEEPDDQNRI

human 4-1BB = biological target: T2, human 4-1BB (human, UniProt Q07011 24-255); assay: flow cytometry on CHOS-h4-1BB cells (overexpressing human 4-1BB), anti-human IgG-Fc PE
T2 construct: whole, on cells; also called h4-1BB; CD137
T2 sequence (Q07011 24-255): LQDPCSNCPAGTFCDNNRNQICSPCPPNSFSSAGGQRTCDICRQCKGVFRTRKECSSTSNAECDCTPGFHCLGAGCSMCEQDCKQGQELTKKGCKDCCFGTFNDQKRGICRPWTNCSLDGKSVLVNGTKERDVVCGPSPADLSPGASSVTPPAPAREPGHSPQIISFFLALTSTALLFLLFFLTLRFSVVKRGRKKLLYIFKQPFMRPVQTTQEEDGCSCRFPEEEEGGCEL

B1: HER2xHER2x4-1BB-1 (bispecific antibody, human IgG1, kappa)
heavy 1: not shown
light 1: DIQMTQSPSSLSASVGDRVTITCRASQSVQGAVAWYQQKPGKAPKLLIYSASFLYSGVPSRFSGSRSGTDFTLTISSLQPEDFATYYCQQHSTTPPTFGQGTKVEIKRTVAAPSVFIFPPSDEQLKSGRASVVCLLNNFYPREAKVQWKVDNALQSGNSQESVTEQDSKDSTYSLSSRLQLSKADYEKHKVYACEVTHQGLSSPVTKSFNRGEC
heavy 2: not shown
light 2: DIQMTQSPSSLSASVGDRVTITCKASQDVSIGVAWYQQKPGKAPKLLIYSASYRYTGVPSRFSGSGSGTDFTLTISSLQPEDFATYYCQQYYIYPYTFGQGTKVEIKRTVAAPSVFIFPPSDEELKSGTASVQCLLNNFYPREAKVQWKVDNALQSGNSQESVTEQDSKDSTYSLSSELTLSKADYEKHKVYACEVTHQGLSSPVTKSFNRGEC
notes: also called HER2×HER2×4-1BB-1; HER2 × HER2 × 4-1BB-1
**Q.** What does the source list for B1?
**A.** EC50 (human FcγRIIb): 1.06 nM; EC50 (human 4-1BB): 6.99 nM

B2: Urelumab (antibody, human IgG4 S228P, kappa)
heavy: not shown
light: not shown
notes: also called Urelumab Analog; copies: 2 + 2
**Q.** Which EC50 (human 4-1BB) does the source give for B2 here?
**A.** The EC50 was 0.316 nM.

Reference: patent EP4592315A1 (Biotheus Inc., dated 2024)
